The experiment addresses commercially available lactoferrin (manufactured by Oleofina Company, Belgium) just as isolated from cow's milk (bovine (cow's milk)) (UniProt P24627).

Substance “commercially available swine pepsin (1:10000; manufactured by Wako Jun-yaku Co., Ltd.) (from UniProt P00791) (enzyme)” had a hydrolyzing rate of the product of 11.3%.

For the origin of these results see patent publication US5804555.
